Source: FireProtDB (doi:10.1016/j.bbadis.2004.06.012)

B1: Aryl-hydrocarbon-interacting protein-like 1, Q9NZN9 (parent)
chain: MDAALLLNVEGVKKTILHGGTGELPNFITGSRVIFHFRTMKCDEERTVIDDSRQVGQPMHIIIGNMFKLEVWEILLTSMRVHEVAEFWCDTIHTGVYPILSRSLRQMAQGKDPTEWHVHTCGLANMFAYHTLGYEDLDELQKEPQPLVFVIELLQVDAPSDYQRETWNLSNHEKMKAVPVLHGEGNRLFKLGRYEEASSKYQEAIICLRNLQTKEKPWEVQWLKLEKMINTLILNYCQCLLKKEEYYEVLEHTSDILRHHPGIVKAYYVRARAHAEVWNEAEAKADLQKVLELEPSMQKAVRRELRLLENRMAEKQEEERLRCRNMLSQGATQPPAEPPTEPPAQSSTEPPAEPPTAPSAELSAGPPAEPATEPPPSPGHSLQH

Variants of: B1
Conditions: Homo sapiens; pH 7.9; Thermal; CD; sodium Phosphate 5 mM; transition: 2; whole UniProt chain shown

In the case of MDAALLLNVEGVKKTILHGGTGELPNFITGSRVIFHFRTMKCDEERTVIDDSRQVGQPMHIIIGNMFKLEVWEILLTSMRVHEVAEFWCDTIHTGVYPILSRSLRQMAQGKDPTEWHVHTCGLANMFAYHTLGYEDLDELQKEPQPLVFVIELLQVDAPSDYQRETWNLSNHEKMKAVPVLHGEGNRLFKLGRYEEASSKYQEAIICLRNLQTKEKPWEVQWLKLEKMINTLILNYCQCLLKKEEYYEVLEHTSDILRHHPGIVKAYYVRARAHAEVWNEAEAKADLQKVLELEPSMQKAVLRELRLLENRMAEKQEEERLRCRNMLSQGATQPPAEPPTEPPAQSSTEPPAEPPTAPSAELSAGPPAEPATEPPPSPGHSLQH [R302L], the Tm is reported as 43.2 °C and the “change of melting temperature, mutant - wild type (higher = more stable)” value (“change of melting temperature, mutant” below) is reported as -0.9 °C.

With MDAALLLNVEGVKKTILHGGTGELPNFITGSRVIFHFRTMKCDEERTVIDDSRQVGQPMHIIIGNMFKLEVWEILLTSMRVHEVAEFWCDTIHTGVYPILSRSLRQMAQGKDPTEWHVHTCGLANMFAYHTLGYEDLDELQKEPQPLVFVIELLQVDAPSDYQRETWNLSNHEKMKAVPVLHGEGNRLFKLGRYEEASSKYQEAIICLRNLQTKEKPWEVQWLKLEKMINTLILNYCQRLLKKEEYYEVLEHTSDILRHHPGIVKAYYVRARAHAEVWNEAEAKADLQKVLELEPSMQKAVRRELRLLENRMAEKQEEERLRCRNMLSQGATQPPAEPPTEPPAQSSTEPPAEPPTAPSAELSAGPPAEPATEPPPSPGHSLQH [C239R] the Tm was 46.7 °C and the “change of melting temperature, mutant” value was 2.6 °C.

In the case of MDAALLLNVEGVKKTILHGGTGELPNFITGSRVIFHFRTMKCDEERTVIDDSRQVGQPMHIIIGNMFKLEVWEILLTSMRVHEVAEFWCDTIHTGVYPILSRSLRQMAQGKDPTEWHVHTCGLANMFAYHTLGYEDLDELQKEPQPLVFVIELLQVDAPSDYQRETWNLSNHEKMKAVPVLHGEGNRLFKLGRYEEASSKYQEAINCLRNLQTKEKPWEVQWLKLEKMINTLILNYCQCLLKKEEYYEVLEHTSDILRHHPGIVKAYYVRARAHAEVWNEAEAKADLQKVLELEPSMQKAVRRELRLLENRMAEKQEEERLRCRNMLSQGATQPPAEPPTEPPAQSSTEPPAEPPTAPSAELSAGPPAEPATEPPPSPGHSLQH [I206N], the Tm is reported as 41.4 °C and the “change of melting temperature, mutant” value is reported as -2.7 °C.

For MDAALLLNVEGVKKTILHGGTGELPNFITGSRVIFHFRTMKCDEERTVIDDSRQVGQPMHIIIGNMFKLEVWEILLTSMRVHEVAEFWCDTIHTGVYPILSRSLRQMAQGKDPTEWHVHTCGLANMFAYHTLGYEDLDELQKEPQPLVFVIELLQVDAPSDYQRETWNLSNHEKMKAVPVLHGEGNRLFKLGRYEEPSSKYQEAIICLRNLQTKEKPWEVQWLKLEKMINTLILNYCQCLLKKEEYYEVLEHTSDILRHHPGIVKAYYVRARAHAEVWNEAEAKADLQKVLELEPSMQKAVRRELRLLENRMAEKQEEERLRCRNMLSQGATQPPAEPPTEPPAQSSTEPPAEPPTAPSAELSAGPPAEPATEPPPSPGHSLQH [A197P], the Tm was 40.5 °C and the “change of melting temperature, mutant” value was -3.6 °C.

With MDAALLLNVEGVKKTILHGGTGELPNFITGSRVIFHFRTMKCDEERTVIDDSRQVGQPMHIIIGNMFKLEVWEILLTSMRVHEVAEFWCDTIHTGVYPILSRSLRQMAQGKDPTEWHVHTCGLANMFAYHTLGYEDLDELQKEPQPLVFVIELLQVDAPSDYQRETWNLSNHEKMKAVPVLHGEGNRLFKLGRYEEASSKYQEAIICLRNLQTKEKPWEVQWLKLEKMINTLILNYCQCLLKKEEYYEVLEHTSDILRHHPSIVKAYYVRARAHAEVWNEAEAKADLQKVLELEPSMQKAVRRELRLLENRMAEKQEEERLRCRNMLSQGATQPPAEPPTEPPAQSSTEPPAEPPTAPSAELSAGPPAEPATEPPPSPGHSLQH [G262S] the Tm was 40.1 °C and the “change of melting temperature, mutant” value was -4 °C.

For MDAALLLNVEGVKKTILHGGTGELPNFITGSRVIFHFRTMKCDEERTVIDDSRQVGQPMHIIIGNMFKLEVWEILLTSMRVHEVAEFWCDTIHTGVYPILSRSLRQMAQGKDPTEWHVHTCGLANMFAYHTLGYEDLDELQKEPQPLVFVIELLQVDAPSDYQRETWNLSNHEKMKAVPVLHGEGNRLFKLGRYEEASSKYQEAIICLRNLQTKEKPWEVQWLKLEKMINTLILNYCQCLLKKEEYYEVLEHTSDILRHHPGIVKAYYVRARAHAEVXNEAEAKADLQKVLELEPSMQKAVRRELRLLENRMAEKQEEERLRCRNMLSQGATQPPAEPPTEPPAQSSTEPPAEPPTAPSAELSAGPPAEPATEPPPSPGHSLQH [W278X], the Tm was 33.2 °C and the “change of melting temperature, mutant” value was -10.9 °C.

In the case of MDAALLLNVEGVKKTILHGGTGELPNFITGSRVIFHFRTMKCDEERTVIDDSRQVGQPMHIIIGNMFKLEVWEILLTSMRVHEVAEFWCDTIHTGVYPILSRSLRQMAQGKDPIEWHVHTCGLANMFAYHTLGYEDLDELQKEPQPLVFVIELLQVDAPSDYQRETWNLSNHEKMKAVPVLHGEGNRLFKLGRYEEASSKYQEAIICLRNLQTKEKPWEVQWLKLEKMINTLILNYCQCLLKKEEYYEVLEHTSDILRHHPGIVKAYYVRARAHAEVWNEAEAKADLQKVLELEPSMQKAVRRELRLLENRMAEKQEEERLRCRNMLSQGATQPPAEPPTEPPAQSSTEPPAEPPTAPSAELSAGPPAEPATEPPPSPGHSLQH [T114I], the Tm is reported as 34.8 °C and the “change of melting temperature, mutant” value is reported as -9.3 °C.
